Source: US8383117
Where no end group is shown, it is not given here. The star is where a group is joined. Biotin = O=C1N[C@H]2[C@H](CS[C@H]2CCCCC(=O)*)N1

B1: VB1-008 monoclonal antibody (antibody, V domains shown)
VH: QVQLQELGPRLVRPSQTLILTCTVSGGSVSGDEYYWSWLRQTPGKGLEWIGYMSYRGSSYYSPSLQSRVTIAVDRSKNEFSLKLTSVTAADAAVYFCARKYCGGDCRSGFDIWGRGTMVTVAS
VL: YELTQPPSVSVSPGQKAFITCSGDNLGNKYVCWYQQKPGQSPVLVIYEDTKRPSGIPERFSASNSGNTATLTISGTQPIDEADYYCQAWDSRTEIFGTGTKVTVLS

Key:
[1] = biological target: Peptide 2 (Biotin-…) (human); experiment: ELISA on peptide-coated plates, 75 µg/mL VB1-008; reference Peptide 3
[2] = biological target: VB1-008 monoclonal antibody; experiment: peptide in molar excess (20× to 200×) against 0.5 µM VB1-008, flow cytometry on MDA-MB-435S cells

| Binder | percent of the binding observed with Peptide 3 [1] [%] | competition efficiency [2] [%] |
| --- | --- | --- |
| B1 | 50 to 60 | – |
| Biotin-RIPATNMDSSH [Peptide 2 (Biotin-…)] | – | 60 |
| Biotin-ATNMDSSHSIT [Peptide 3 (Biotin-…)] | – | 96 |
